Positions count from the first letter of the chain named. Each block holds one binder with its values, some of them ahead of it.
Legend:
Test in all cases: ELISA on biotinylated peptide captured by streptavidin; A450 normalised to isotype control
[1] = target: T1, human TREM2 truncated stalk peptide (aa 149-163) (human)
T1 sequence (peptide, biotinylated (site not stated)): SFEDAHVEHSISRSL

[2] = target: mouse TREM2 truncated stalk peptide (aa 149-163) (mouse) (UniProt Q99NH8)
[3] = target: T2, human TREM2 full length stalk region peptide (aa 129-172) (human)
T2 sequence (peptide, biotinylated (site not stated)): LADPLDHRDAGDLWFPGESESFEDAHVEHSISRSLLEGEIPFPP

B3: CL0020124 (antibody, V domains shown)
VH: EVQLQQSGPVLVKPGASVKMSCKPSGYTFTDYYMNWVKQSHGKSLEWIGSINPYTGGSSYNQKFRGKATLTVDKSSSTAYMELNSLTSEDSAVYYCARGSYYSNLGFAYWGQGTLVTVSA
VL: DVQLTQSPSYLTASPGETITINCRASKSISKYLAWYQEKPGKTNKLLISSGSTLQSGIPSRFSGSGSGTDFTLTISSLEPEDFAMYYCQQYSEYPFTFGSGTKLEIK
fold over background (A450) [2]: 1.7 fold
fold over background (A450) [3]: 2.1 fold

B5: CL0020107 (antibody, V domains shown)
VH: QVQLQQPGAELVKPGASVKMSCRASGYTFTNYWISWVKQRPGQGLEWIGDIYPHSTSTNYNERFRSKATLTVDKSSTTAYMQLSSLTSEDSAVYYCAREGFGISAWGQGTTLTVSS
VL: QIVLTQSPAIMSASPGEKVTITCSATSSVSYMHWFQQKPGTSPKLWIYSTSNLASGVPARFSGSGSGTSHSLTISRMEAEDAATYYCQQRSSYPLTFGSGTKLELK
fold over background (A450) [2]: 1.6 fold

B7: CL0020141 (antibody, V domains shown)
VH: EVTLVESGGGLVQPGGSLRLSCATSGFTFTDYYMSWVRQPPGKALEWLGFIRDKANGYTTDYSASVKGRFTISRDNSQNILYLQMNTLRAEDSATYYCSRLLRAQGFAYWGQGTLVTVSA
VL: DIVMSQSPSSLGVSIGEKVIMSCTSGQSLLYSNNQKNYLAWYQQKPGQSPKLLIYWASTRESGVPDRFTGSGSGTDFTLTINSVKAEDLAVYYCQQYYRNPFTFGSGTKLEIK
fold over background (A450) [1]: 2.1 fold
fold over background (A450) [2]: 1.4 fold

Further lines, results first:

fold over background (A450) [1]: 2.5 fold
fold over background (A450) [2]: 1.1 fold
B1: CL0020308 (antibody, V domains shown)
VH: QVQLKQSGPSLVQPSQSLSITCTVSGFSLTTYGIHWVRQSPGKGLEWLGVIWTGGSTAFNAAFMSRLSITKDNSKSQVFFKMNSLQADDTAIYYCAKVGFHSATDYWGQGTSVTVSS
VL: DVLMTQTPLSLPVTLGDQASISCRSSQNLVHSNGNTYLEWYLQKPGQSPKLLIYKVSNRFSGVPDRFSGSGSGTDFTLKISRVEAEDLGLYYCFQGSHVPFTFGSGTKLEIK

fold over background (A450) [1]: 2.2 fold
fold over background (A450) [2]: 1.3 fold
B2: CL0020309 (antibody, V domains shown)
VH: B1 VH with T31S, I34V, H35Q, S56T, A58D, M64K, T90S, V98I, T104V
VL: B1 VL with T14S, L29I, S81N, V99I, K108Q

fold over background (A450) [1]: 2.2 fold
fold over background (A450) [2]: 1.3 fold
B4: CL0020096 (antibody, V domains shown)
VH: QIQLVQSGPELRKPGETVKISCKASGYTFTTYGMSWVKQAPGKGLKWMGWINTYSGLPRHSDDFKGRFAFSLETSASTAYLQINNLKNEDTATYFCAREVYYGSRKTAWFAYWGQGTLVTVSA
VL: DLVMSQSPSSLAVSVGERVTMSCKSSQSLLYSNDQKNYLAWYQQIPGQSPKLLIYWASTRESGVPDRFTGSGSGTDFTLTISSVKAEDLAVYFCQQYYSYPPTFGAGTKLELK

fold over background (A450) [1]: 3 fold
fold over background (A450) [2]: 0.9 fold
B6: CL0020188 (antibody, V domains shown)
VH: EVKLLDSGGGLVQAGGSLRLSCAGSGFTFTDFYMSWIRQPPGKAPEWLGVIRNKANGYTAGYNPSVKGRFTISRDNTQNILYLQMNTLRAEDTAIYYCARLTYGFDYWGQGVMVTVSS
VL: DIVMTQGALPNPVPSGESASITCQSSKSLLHSNGKTYLNWYLQRPGQSPQLLIYWMSTRASGVSDRFSGSGSGTDFTLKISSVEAEDVGVYYCQQFLEYPFTFGSGTKLEIK

From patent US20220119522A1
